# Data taken from publication doi:10.1101/2021.03.07.432812.
# Key:
# [1] = biological target: Spindlin1_(50-262) bound to DOCpep(1-3) (UniProt Q9Y657); assay: ITC
# Y177A, W151A, and F141A = assay: ITC
substance,measurement,setting,value
histone H3 1-20 K4me3 peptide (from UniProt P68431 2-21),fold decrease of binding affinity in the presence of DOCpep(1-3),[1],18 fold
"DOCpep2, SPIN•DOC 228-239 peptide (from UniProt Q9BUA3 228-239)",fold reduction of binding against wild-type Spindlin1,"Y177A, W151A, and F141A",1.5 to 3 fold
